A protein production outcome set (Wang et al. 2014)

Experiment: label from the status in PepcDB records

| Sequence | protein production |
| --- | --- |
| MTSYSLEDFNTPLECAPLARWERKRKEQLDRTSKTPNKTPQGDRFIPNRNVMNIEVSRLNLQQEYYGKENNQNSSSLLDSHMDNVEWNSGKDSPACHHYQSALASSLLQNSYHEEHPQSKILTFKQKAPKPQEGYVNSLKVLYSQNMPQISEQRKRMIRHIPQTPDRILDAPELVDDYYLNLLDWNHENILAVALGSSVYLWNASTGDIQELCNVSQDEMICSVSWVPDGHHLAVGTSMKDVQLWDTQRGRQVRKMHSHSSRVGCLAWNGPILSSGSRDTTIHHHDVRIAQHHVETLRGHEQEVCGLKWNVDGSQLASGGNDNLLMIWDHFHSNQPKYRLDHHHAAVKAIAWCPWQTHLLASGGGTADRTIKFWNTTTGACLQSIDTKSQVCALIWNRHDKEIVSSHGFSQNQLIVWKYPSMVKMAELTGHTSRVLHLSLSPDGQTVVSGAGDETLRFWRVFEASESKLKSSNKTLGHSQKSIMRTCNIR | not failed |
| MKVSDILTVAIRLEEEGERFYRELSEHFNGEIKKTFLELADQERIHAEIFRKMSDQENWDEVDSYLAGYAFYEVFPDTSEILRRKDLTLKEVLDIAISVEKDSIILYYELKDGLVNSDAQKTVKKIIDQEKEHLRKLLEMKREST | not failed |
| MRCGWLLGFLFLLSVLSYPRPAVAMTVLAEEYAPLSYSVDGQPRGFAVELFHELERRLALPPSDVTFMAWSRAYRLLLRGPRHAILFMGRTMEREDKVWFVGPIWVEDDYFYKKAGSHVAAATLDEARTVSRIGVVRDDFYQLRLQEMGFTNLDLGTSHEQGLRKLAQGRVDLVPMGELTAASQIANYPGLSMDSFERTDIHLLRSEMYIGFSRDMAWVEVERWQKALDHLRQDGTYDQILRKFVPQWRSR | failed |
| MTEVNLNIYSPRWGRHETYIVELHKDYMEISMGAVTIKATYSENQDPEWSEETLQDIMNNDSVYPPEITQNLFQHAWLEWRKGALDNDEVTRELELVAQWVNKVTEAKPNSDFWRKYF | not failed |
| MKPTMMTYINEEEEMCRVILADFQTNAEKLESLVKNGAKEWLILATGSSLNAAQSAKYYIENLADVRITIEEPFNHLYYEKLSSHLDLVIGISQSGQSTSTISALERVKKEASVPVVALTSDVTSEIAEFADITLDIGSGKERVGYVTKGFTATVLTLMLTGLHFAYKTVQIDETRFNNEISAFSRAIDAIPATIAETEAFYERWQEEFATAPKFTAIGYGPTVGTCKEFETKFSETVRVPSQGLDLEAFMHGPYLEVNPQHRIFFLETASAVTERLVLLRDYESKYTPFTYTVKFGKGEDDRTLVIPTDLDEYQAPFLMILPFQILAHHIAELKGNKLTERIYTDFGVAMKSKTKPGDYA | not failed |
| MNTKALIGILMFLLLITWSSKGFAKTAEATVTVNIRNSPSTSSKVLGVFPKGFKAQVLSSTGGWVKISFDGVVGYVKSDYIKLTKDSSTSNAVKSSTNTRQVVSQMPMATVLKDNARVRSNMSTSSKILKTLKKGSKVYVLARERNGWIKVKTLDGTVGYMAYYLLKMSTSHTTKISSRGGYDREAQVAYNGSLADRILGFAKNLLGIRYRYGGSSPSTGFDCSGFVQYVFRNFGISLERTAADMAATDGVRISYNELRPGDLVFFDTDGGRNYINHVGIYLGGGKYIHASSARGCVTISDLTSKYGTSFMMAKRVIR | failed |
| MDSYFLFFIILTSIFIVPQILKRFNVPTITATMLAGIIIGPFGLNLIQTSSTLDTFASFGVIFLMFLAGMEVDNETLKDEFKNSLVLSLFSMLIPAIGGYFIGQYFGLDFIGSLLYAVIFSSHSVGIVYALMDELGLIKSRFGTTVISASVVIDLISLIVISILIKMGGSGINSDIIPFIVLIVAYIIALLIIIPLISKLILNELQKFHVQKIHFILLIILISIIVGEHIGIHPIIGAFIIGIAVSEELTKEEHDKILNENLNAIGYGIFIPLFFLNLGMTTDISVIFNFDNLSLIFVSVVSLISLKIISGYFSLRILDYNKLKSFCGGLLTVPSLTASLVGATLGRDLGILPEKFFVAVVVIALLTSTVAPIYVKNLVSKNYDKLKLN | failed |
| MNVSNGDLIVEKIVANRKYHALKRQRNVLSWLLTLLMLVVYFGFIGLIAFNKAFLAVPLASGVTTRGIPIAIGVMLFAIIVTAVYVFFSNIVYDKLSRNILEDACK | failed |
| PTEFLYTSKIAAISWAATGGRQQRVYFQDLNGKIREAQRGGDNPWTGGSSQNVIGEAKLFSPLAAVTWKSAQGIQIRVYCVNKDNILSEFVYDGSKWITGQLGSVGVKVGSNSKLAALQWGGSESAPPNIRVYYQKSNGSGSSIHEYVWSGKWTAGASFGSTVPGTGIGATAIGPGRLRIYYQATDNKIREHCWDSNSWYVGGFSASASAGVSIAAISWGSTPNIRVYWQKGREELYEAAYGGSWNTPGQIKDASRPTPSLPDTFIAANSSGNIDISVFFQASGVSLQQWQWISGKGWSIGAVVPTGTPAGW | not failed |
| MKSEKETIYDYAAELKLLSFKEELECTLSLAAEENWNHLQFLTELLGKESARRRECRRRSRIRSAGFPQMKYLHELVMEDMPKEAQVILPELETLDFIRQGRNLVLYGNPGTGKTHIATALGIKACQQDFTVLFTSVPVLLTQIREAKSAKTLRTLQLRFEKYDLVICDEFGYVSCDKEGGELLFNHLSLRAGKKATIITTNLAFNRWNEIIKDKVLVAAMVDRLTHKAYLVNMTGLSYRLKETQKMRQDKLEHHHHHH | failed |
| MGVSFKISKVGRKFRPKISTELATPDSPKAIVLSGKPKATDDSNIGDVSGFSKPSLPDISPDHEVSFILSLYPNGYSIGKTSEAMQQISFRDVPKVLHPYDRAAEGLLSAIEAGRLPGDILEDIPCKFVDGVVICEVHDYRKHTSSQVSPVINKLRLKMSLENVVKDIPSMSDNSWTYGDLMVIMVARGL | failed |
| MTKVERLLINYKTLEEFKKFKEYGIQELSMLEELQDNIIENDSTSPFYGIYFGDKLVARMSLYQVNGKSNPYFDNRQDYLELWKLEVLPGYQNRGYGRALVEFAKSFKMPIRTNPRMKSAEFWNKMNFKTVKYDMARDKGEDPLIWHPDMDREMTPGESA | not failed |
| MQAILLNFCFDFMCNYVIMSNKHFYRLGGFIMSFKIITISREFGSGGRFIGEQIAQKCGIEFYDKKIIEHVAKELGISEQIVANQGEYAPAGNIFSYAFVGRDITGVSLSDQIFNIQQKLIKDIAQKEPCVIVGRCADYILSDRDDVLNVFIEGNKPEKAARIKKLYQKSDDEVKKLLKDVDKKRSVNYRYFTDKEWGNRKNYDLVLNSSVLGYDKCIELITAAYA | failed |
| MIRNPKIYIIILNYNAYEDTLECVKSIGNIDYDNYELVLVDNSSTDDSYVKLKESLPSYNIIKSKENLGYANGNNIGIKYALENGADYICILNNDVVVEKDFLNKLVDKIIEKEDVGIVGSCICDYYRREIIQGMGAHINLYFAAARRYFKGKNYNEIEKKDIFVDYLEGACFLVKSEVFEKIGLIPENYFLFFEETEFCTRAINAGYKIMCIYESKVYHKGSATINKFGSLSYAYLNRNRVIFVRRNSKWYQKIIFAIYIFIEAFGRIVIRKEPLTLFKYILGGFKSNKESIDVIDVKSYVKLEHHHHHH | failed |
| MEIQEMAKRFSPEFKQQAIDYALSNSHEPIATIAQKLGVGYSTLDKWIREANPVGSSKRQLSPEQQRILELEKEVKQLREANDILKKAHVYFLTDHAKKSTR | failed |
| MTENTSSFPRSSGELHEFTRADVWGGFTQLLPLSFFVVVFGLAFGVAAVQTGLDAFPTLLMSTLVFAGASQFATLEMWGAEVPLVPVLITVFAINARHLLMGATLYPWLRQLPPHKRYGIMLLASDANWAMAMNAFGKKEPGFGLLVGGGLALWGFWIVGTWMGIYFGGAIKDPVSLGLDMVMGCFLLSMVAGGPKNLRIFAIWGMAAASSLMAYWYLPENSHVVVGAIAGGILGACWKEKKA | failed |
| MASYSEDQCSWRGSGLSQAVKNVEQVWLRCAEGSVEWLYPAGALRLTLSPRLPWSAMGPGESSRSPVSVCVKPDPHWGGAQLYLERDGVLELLVGDETSTTPGPAHVRCFSALPGERPALFLQATPHRDISRRIAAFRYELRGDWTAQPAVNTDPVSSEGACRPCNNTEILMAVCTSDFVVRGNIRSVGTDSNLNAAVIKVSATRVYRQKFALFPESGRLTRSGEIRTPLQCGVRPGAGSFLFTGRVHFGEAWLGCAPRYKDFLKAYEQAKQSLMIPCTLVND | failed |
| MMLAGCQSEEETSQFLLACKYDAPATIAAMLDNGIDVDGQDKTGLSGLMVAAAENRRDVVELLLKRRAKPNLQTRQGVTALMLAAARGSDTAIIGDLLQAGASVNQTSIDKSTALMSAISDGGDVRNDYQHILAMKKPDAPVEEESTLDKIVGATAAKSLATGNRALMTEDMALQLAPGAFKKNVDEIVALLLKHGADVKAVNVSGESAFFLAVDHARSAETITTLANAGADTSLADKSGTTPLMLAAAGDDPDLVLALSASGVEVDKPNREGLTALQVAAGQGAPAVIAALAQRGAKVDQLSANDLSPLMLAVKMNNKANVEALLAAGASVNLSNKAGYTAIGYSRAGEVRQLLLAQHAELKGQAAHMAQSELQFCANAFADKLAYSDIARAVNNDTRPDIMRHQQSCPELGELTMLLGEFTFTPAGATYLGEPVTCKVSEYRKTFEVNCR | failed |
| ASIVGSWVEPVPGLEGQVQGIKMEEGGVASSVNMATLVYESWKQEGTKLILTGKSIGNGQTIEFVDTMDIKRLTADSLVLDNQGMEIRYAKQK | not failed |
| MFKSVQQRTIQNGQVIPFYHSTNELAHIQNILQSQTPLVSLKEINKFRQLIARASVGEYFLIQSGDCAENFYECDKDTTHAKLDFIRHLATFFHQKTGCSVIQVGRIARQYAKPRSNQYEICQNKRIYSYFGGMINQSQETQRRPNPWRILLSYNCSASIYRKINQWNRGINPEQKIYTSQEAFLFNYEQSLTRWDERTGLYYNLSTHFPWLGKRTVSSLQHINHLKKIANPIAVKIGPDTPIKNLVKVINELDPSYIPGRITLIPELGAQNVYHILPQLIDAVKRTDRTVLWSCDPMHGNTETLSSGIKIRKLSNIVEEIKNSFFIHRKMGSQLNAIHLEATHQNVTECMDYKSSHCESISDLKKNYKNLLDPRLNYAQTLHVIQCVAKYYANS | failed |
| VSERKAMQKRLTRRERRFRMMFEGHSAPMLLIDEETGAIEQANAAAVEFYGYERDILMSMSIQDINQLPAEEVARERREAAEDGDEFLFEHELASGAVRTVRVLSAPIPNLDRAGTLLFSVIHD | failed |
| MMTKKDLPLRQLLKLRNSWIAWVVFLVSVVATVLLWQVSIRLVEDRTEARFRTQSLQLKTAIEERLLNYEQVLAGSAGLFAVTGKVTRDQWKEYVDNVDINRYYPGIEGIGYVERIGVREMADHIASVRAEGLYNYLVKPLGTGPYYYPMVYLEPGTERNRKALGYDAFSDPIHRTAMEQARDDAIPTVTGKVVLVQESVAEDQAGFLMYYPVFQGGEIPEIRAERRMMLAGYVFSAFRMNNLIDGIVGLISPFLDVRIYDSGVVARDTLMYGSNLGSLDNEFSFEMSQTIRHGGREWLLQTRSTPAFDYLAADPRPPIVLGSGLAISLLLWLFVLALIRSRLIAQVSAGRYRAITEGAANVTLVMDRRGRPLYASPSSRDILGFDPDKVEALEFEKLVHMDDWSHLQRGFEESMASPGKQMPVVRARVRDADGQWRDMEGTFTAMLSVPGVNGVVLSLRDLTQLKAAQSELHRLAFYDPLTGLANRQLFRDRLNHVVRRSRRSGEAAALMFLDLDGFKRINDTLGHDAGDELLRQVAQWLEGCVREEDSVARLGGDEFVVLLSRISGSEAAGKVAENILRRLCQRIRLNDHEVGVTVSIGITMIPHDSEDAGALMKYADLAMYRAKELGRNTYQFFTPAMNIQAARRLLQQEELATALDGDRFVLHYQPKVDLATQRVIGVEAFLRWHHPEKGLVSAQQFITLAEETGLIIRLGELALRQACIQVQALERAGFESLKMAVNFSVRQLTDSGFLDMIRRVITETGVSPERLELEMPAELLNEDPRMLRELLVSLNDLGVCLILDDFGTGSCSLVALQQLPLDVIKIDHRFIRDIPYNVSATDVASAVIALAHKLHLTVVAEGVETLQQLTFLKSAGCAQCQGNLFSYPLDEDALIGFLIRQYEKPLIS | failed |
